Experimental data reported in PMC11398526 (bioRxiv, 2024).

B1: progesterone receptor isoform A (PR-A), full-length, Strep II tagged (natural protein)
chain: MSRSGCKVGDSSGTAAAHKVLPRGLSPARQLLLPASESPHWSGAPVKPSPQAAAVEVEEEDGSESEESAGPLLKGKPRALGGAAAGGGAAAVPPGAAAGGVALVPKEDSRFSAPRVALVEQDAPMAPGRSPLATTVMDFIHVPILPLNHALLAARTRQLLEDESYDGGAGAASAFAPPRSSPCASSTPVAVGDFPDCAYPPDAEPKDDAYPLYSDFQPPALKIKEEEEGAEASARSPRSYLVAGANPAAFPDFPLGPPPPLPPRATPSRPGEAAVTAAPASASVSSASSSGSTLECILYKAEGAPPQQGPFAPPPCKAPGASGCLLPRDGLPSTSASAAAAGAAPALYPALGLNGLPQLGYQAAVLKEGLPQVYPPYLNYLRPDSEASQSPQYSFESLPQKICLICGDEASGCHYGVLTCGSCKVFFKRAMEGQHNYLCAGRNDCIVDKIRRKNCPACRLRKCCQAGMVLGGRKFKKFNKVRVVRALDAVALPQPVGVPNESQALSQRFTFSPGQDIQLIPPLINLLMSIEPDVIYAGHDNTKPDTSSSLLTSLNQLGERQLLSVVKWSKSLPGFRNLHIDDQITLIQYSWMSLMVFGLGWRSYKHVSGQMLYFAPDLILNEQRMKESSFYSLCLTMWQIPQEFVKLQVSQEEFLCMKVLLLLNTIPLEGLRSQTQFEEMRSSYIRELIKAIGLRQKGVVSSSQRFYQLTKLLDNLHDLVKQLHLYCLNTFIQSRALSVEFPEMMSEVIAAQLPKILAGMVKPLLFHKK
B2: progesterone receptor isoform B (PR-B), full-length, Strep II tagged (natural protein)
chain: MTELKAKGPRAPHVAGGPPSPEVGSPLLCRPAAGPFPGSQTSDTLPEVSAIPISLDGLLFPRPCQGQDPSDEKTQDQQSLSDVEGAYSRAEATRGAGGSSSSPPEKDSGLLDSVLDTLLAPSGPGQSQPSPPACEVTSSWCLFGPELPEDPPAAPATQRVLSPLMSRSGCKVGDSSGTAAAHKVLPRGLSPARQLLLPASESPHWSGAPVKPSPQAAAVEVEEEDGSESEESAGPLLKGKPRALGGAAAGGGAAAVPPGAAAGGVALVPKEDSRFSAPRVALVEQDAPMAPGRSPLATTVMDFIHVPILPLNHALLAARTRQLLEDESYDGGAGAASAFAPPRSSPCASSTPVAVGDFPDCAYPPDAEPKDDAYPLYSDFQPPALKIKEEEEGAEASARSPRSYLVAGANPAAFPDFPLGPPPPLPPRATPSRPGEAAVTAAPASASVSSASSSGSTLECILYKAEGAPPQQGPFAPPPCKAPGASGCLLPRDGLPSTSASAAAAGAAPALYPALGLNGLPQLGYQAAVLKEGLPQVYPPYLNYLRPDSEASQSPQYSFESLPQKICLICGDEASGCHYGVLTCGSCKVFFKRAMEGQHNYLCAGRNDCIVDKIRRKNCPACRLRKCCQAGMVLGGRKFKKFNKVRVVRALDAVALPQPVGVPNESQALSQRFTFSPGQDIQLIPPLINLLMSIEPDVIYAGHDNTKPDTSSSLLTSLNQLGERQLLSVVKWSKSLPGFRNLHIDDQITLIQYSWMSLMVFGLGWRSYKHVSGQMLYFAPDLILNEQRMKESSFYSLCLTMWQIPQEFVKLQVSQEEFLCMKVLLLLNTIPLEGLRSQTQFEEMRSSYIRELIKAIGLRQKGVVSSSQRFYQLTKLLDNLHDLVKQLHLYCLNTFIQSRALSVEFPEMMSEVIAAQLPKILAGMVKPLLFHKK
B3: steroid receptor coactivator 3 (SRC3), full-length, Strep II tagged (natural protein)
chain: not shown

Key:
[1] = biological target: B3; test: HDX-MS
[2] = biological target: T1, histone acetyltransferase p300, full-length, Strep II tagged (human, UniProt Q09472 1-2414); test: cross-linking
[3] = biological target: T1, histone acetyltransferase p300, …; test: HDX-MS
[4] = biological target: B1; test: SEC-MALS

T1 sequence (Q09472 whole entry): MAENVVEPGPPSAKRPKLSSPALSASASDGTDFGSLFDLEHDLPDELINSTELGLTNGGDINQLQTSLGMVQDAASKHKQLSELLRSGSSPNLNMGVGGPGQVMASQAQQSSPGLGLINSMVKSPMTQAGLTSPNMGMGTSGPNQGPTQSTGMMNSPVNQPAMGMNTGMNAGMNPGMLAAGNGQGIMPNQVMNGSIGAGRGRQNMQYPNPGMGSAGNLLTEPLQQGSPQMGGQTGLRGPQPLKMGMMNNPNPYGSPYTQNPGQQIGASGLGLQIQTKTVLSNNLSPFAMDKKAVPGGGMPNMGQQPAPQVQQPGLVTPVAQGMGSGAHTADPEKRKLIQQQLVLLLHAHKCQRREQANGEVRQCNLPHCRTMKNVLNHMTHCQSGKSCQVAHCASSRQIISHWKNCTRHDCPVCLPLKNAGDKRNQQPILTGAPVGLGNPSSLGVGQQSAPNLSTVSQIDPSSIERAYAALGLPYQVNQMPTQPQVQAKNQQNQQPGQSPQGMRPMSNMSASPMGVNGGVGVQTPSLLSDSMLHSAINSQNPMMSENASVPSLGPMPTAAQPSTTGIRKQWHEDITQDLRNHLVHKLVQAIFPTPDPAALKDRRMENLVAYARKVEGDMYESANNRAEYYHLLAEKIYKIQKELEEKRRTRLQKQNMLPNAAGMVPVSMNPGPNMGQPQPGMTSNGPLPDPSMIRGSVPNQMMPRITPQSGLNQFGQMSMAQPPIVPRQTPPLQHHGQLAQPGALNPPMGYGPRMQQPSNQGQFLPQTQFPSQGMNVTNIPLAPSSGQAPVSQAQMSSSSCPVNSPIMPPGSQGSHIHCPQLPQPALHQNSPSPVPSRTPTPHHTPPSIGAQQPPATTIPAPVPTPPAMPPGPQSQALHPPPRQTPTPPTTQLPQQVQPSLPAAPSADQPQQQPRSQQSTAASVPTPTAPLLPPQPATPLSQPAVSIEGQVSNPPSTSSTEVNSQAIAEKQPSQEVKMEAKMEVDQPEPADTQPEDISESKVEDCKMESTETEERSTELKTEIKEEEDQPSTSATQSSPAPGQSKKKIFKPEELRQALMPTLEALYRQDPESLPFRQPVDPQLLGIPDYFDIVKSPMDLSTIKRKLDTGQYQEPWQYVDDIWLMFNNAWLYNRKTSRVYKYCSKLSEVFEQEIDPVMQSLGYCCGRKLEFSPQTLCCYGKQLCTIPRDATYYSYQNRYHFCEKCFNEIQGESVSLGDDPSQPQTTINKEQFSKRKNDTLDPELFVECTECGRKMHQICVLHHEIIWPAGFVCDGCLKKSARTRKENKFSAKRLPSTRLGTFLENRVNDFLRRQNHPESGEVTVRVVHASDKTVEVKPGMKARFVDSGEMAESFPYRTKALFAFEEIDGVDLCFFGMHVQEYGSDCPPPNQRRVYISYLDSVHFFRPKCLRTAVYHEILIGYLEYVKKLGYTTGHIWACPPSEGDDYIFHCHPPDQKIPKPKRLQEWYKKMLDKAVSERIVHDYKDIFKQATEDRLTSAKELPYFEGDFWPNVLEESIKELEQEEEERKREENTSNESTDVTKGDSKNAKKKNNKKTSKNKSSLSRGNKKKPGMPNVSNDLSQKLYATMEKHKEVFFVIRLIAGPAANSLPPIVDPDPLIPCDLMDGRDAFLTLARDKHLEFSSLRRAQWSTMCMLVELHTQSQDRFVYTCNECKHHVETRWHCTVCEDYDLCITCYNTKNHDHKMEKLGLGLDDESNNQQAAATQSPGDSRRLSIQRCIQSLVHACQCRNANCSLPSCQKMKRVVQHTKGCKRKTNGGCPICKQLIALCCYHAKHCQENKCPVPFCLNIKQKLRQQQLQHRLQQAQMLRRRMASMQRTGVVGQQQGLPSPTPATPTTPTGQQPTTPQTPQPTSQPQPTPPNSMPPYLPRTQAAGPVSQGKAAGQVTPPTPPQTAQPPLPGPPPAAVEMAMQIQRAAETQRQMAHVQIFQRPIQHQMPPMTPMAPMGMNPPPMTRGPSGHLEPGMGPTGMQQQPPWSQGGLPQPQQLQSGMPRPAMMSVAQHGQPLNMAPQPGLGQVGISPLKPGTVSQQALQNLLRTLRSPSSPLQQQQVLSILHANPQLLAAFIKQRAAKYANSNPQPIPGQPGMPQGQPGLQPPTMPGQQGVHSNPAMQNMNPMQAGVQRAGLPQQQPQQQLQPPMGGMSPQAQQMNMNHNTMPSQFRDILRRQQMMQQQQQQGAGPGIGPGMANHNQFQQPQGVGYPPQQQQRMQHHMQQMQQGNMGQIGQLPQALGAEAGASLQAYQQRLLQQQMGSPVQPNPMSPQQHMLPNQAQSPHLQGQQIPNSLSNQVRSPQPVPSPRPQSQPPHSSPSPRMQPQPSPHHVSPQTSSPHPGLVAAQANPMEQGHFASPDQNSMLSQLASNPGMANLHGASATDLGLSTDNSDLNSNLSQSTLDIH

| Binder | binding result [1] | binding result [2] | binding result [3] | stoichiometry N [4] [SRC3 per PR-A] |
| --- | --- | --- | --- | --- |
| B1 | binds | binds | – | – |
| B2 | binds | binds | – | – |
| B3 | – | – | binds | 0.5 |
